The values below come from article doi:10.1101/2025.05.03.651265.

Experiment [1] has as its target E2CTD, C-terminal toxin domain of the GA1 T6SS effector E2 from Parabacteroides sp. D25 (Parabacteroides sp. D25). Kind of experiment: ITC. To be noted: natural protein.
For experiment [2] the target is unchanged. Kind of experiment: SEC-MALS; co-purified E2CTD-I2 complex at 2 mg/ml, Superdex 200 Increase 10/300, MiniDAWN detector and Optilab. On the technique in general: SEC sorts molecules by how far they enter the pores of the column.

One may read the Kd as the free concentration of one partner at which half of the binding sites on the other are occupied at equilibrium, for simple one-to-one binding. Low values mean higher affinity, high ones lower affinity. Consider “I2^PV, divergent cognate I2 protein from P. vulgatus AF31-3”, for which, in experiment [1], the Kd came out at 5.2 nM.
On to “I2^BU, divergent cognate I2 protein from B. uniformis 82G1”, for which, in experiment [1], the Kd came out at 18 nM.
With “cognate I2 immunity protein from Parabacteroides sp. D25, expressed and purified alone”, the Kd in experiment [1] came to 27 nM.
Broadly, the stoichiometry N is the number of molecules, sites or subunits per partner or assembly. In turn, “cognate I2 immunity protein from Parabacteroides sp. D25, untagged, co-expressed with E2CTD (natural protein)” returned a stoichiometry N in experiment [2] of 1.
